The values that follow come from paper PMC4010968, “Nap1 stimulates homologous recombination by RAD51 and RAD54 in higher-ordered chromatin containing histone H1” (Scientific Reports, 2014).

The target in test [1] is T1, Human RAD54 (purified) (human, UniProt Q92698 1-747).
T1 construct: RAD54, human cDNA inserted into pFastBac HTc; purification details are in the Supplementary Methods; also called purified RAD54; source: recombinant human RAD54 baculovirus (pFastBac HTc vector), purified; details in Supplementary Methods
T1 sequence (looked up): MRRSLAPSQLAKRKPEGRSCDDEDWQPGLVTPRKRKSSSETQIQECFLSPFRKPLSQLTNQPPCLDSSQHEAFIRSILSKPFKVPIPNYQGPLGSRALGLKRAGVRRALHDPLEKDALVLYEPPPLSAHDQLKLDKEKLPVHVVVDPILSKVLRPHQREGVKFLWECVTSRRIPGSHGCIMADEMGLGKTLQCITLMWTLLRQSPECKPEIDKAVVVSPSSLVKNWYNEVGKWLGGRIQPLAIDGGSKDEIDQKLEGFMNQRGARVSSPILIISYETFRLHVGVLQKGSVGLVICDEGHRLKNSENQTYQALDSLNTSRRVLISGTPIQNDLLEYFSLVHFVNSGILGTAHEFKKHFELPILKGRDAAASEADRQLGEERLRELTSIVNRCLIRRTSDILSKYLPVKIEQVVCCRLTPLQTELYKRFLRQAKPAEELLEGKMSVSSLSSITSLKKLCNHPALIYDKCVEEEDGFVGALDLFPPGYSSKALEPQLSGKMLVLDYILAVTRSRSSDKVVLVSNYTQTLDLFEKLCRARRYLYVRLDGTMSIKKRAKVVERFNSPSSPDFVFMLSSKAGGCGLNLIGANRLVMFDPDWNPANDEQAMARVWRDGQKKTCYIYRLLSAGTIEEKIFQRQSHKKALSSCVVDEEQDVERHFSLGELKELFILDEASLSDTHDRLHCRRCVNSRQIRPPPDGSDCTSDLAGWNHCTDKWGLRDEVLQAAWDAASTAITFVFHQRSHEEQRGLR
Kind of test: pull-down; Nap1-conjugated beads with purified RAD51 alone or purified RAD54 alone; SDS-PAGE with Coomassie Brilliant Blue staining. Particulars: both partners purified.

Test [2] deals with T1, Human RAD54 (purified). Kind of test: native gel or EMSA; Nap1 or mutant incubated with the indicated amounts of RAD54; 5% native PAGE with Coomassie Brilliant Blue staining; RAD54 alone does not enter the gel. The following applies: both partners purified. (Mobility shift assays separate free from complexed probe on a gel.)

Numbering of substitutions follows the chain as printed. Names may count otherwise.

B1: Human Nap1 (purified, wild type) (natural protein, UniProt P55209 1-391, looked up)
chain: MADIDNKEQSELDQDLDDVEEVEEEETGEETKLKARQLTVQMMQNPQILAALQERLDGLVETPTGYIESLPRVVKRRVNALKNLQVKCAQIEAKFYEEVHDLERKYAVLYQPLFDKRFEIINAIYEPTEEECEWKPDEEDEISEELKEKAKIEDEKKDEEKEDPKGIPEFWLTVFKNVDLLSDMVQEHDEPILKHLKDIKVKFSDAGQPMSFVLEFHFEPNEYFTNEVLTKTYRMRSEPDDSDPFSFDGPEIMGCTGCQIDWKKGKNVTLKTIKKKQKHKGRGTVRTVTKTVSNDSFFNFFAPPEVPESGDLDDDAEAILAADFEIGHFLRERIIPRSVLYFTGEAIEDDDDDYDEEGEEADEEGEEEGDEENDPDYDPKKDQNPAECKQQ
notes: Nap1 (histone chaperone, nucleosome assembly protein 1), human; also called purified Nap1; wild type Nap1
Take B1: in the test with Human RAD54 (purified) [1], the binding result is listed as “binds”.

B2: Nap1(E215,219,222,227K) mutant (natural protein, human, UniProt P55209 1-391, looked up)
chain: B1 chain with E215K, E219K, E222K, E227K
notes: Nap1, human, with Glu215, Glu219, Glu222 and Glu227 replaced by Lys; A trace amount of a read-through product was present as a contaminant in the purified fraction; also called Nap1(E215K,E219K,E222K,E227K) mutant; Nap1 mutant
With B2, the binding result in the test with Human RAD54 (purified) [2] is recorded as “binds”.
